Test results: paper PMC5771465 (Nature structural & molecular biology, 2016)

Legend:
[1] = target: C5-OmCI complex (human | not stated (tick)) (UniProt Q5YD59); assay: SEC-MALS
complement C5 = complement C5 (human, UniProt P01031); assay: crystal structure

Molecule | stoichiometry N [1] | binding result (complement C5)
RaCI3 (from UniProt A0A146B485 25-102) (natural protein) | 1 | 
His-tagged OmCI carrying two glycosylation mutations (N78Q/N102Q) (natural protein) DSESDCTGSEPVDAFQAFSEGKEAYVLVRSTDPKARDCLKGEPAGEKQDNTLPVMMTFKQGTDWASTDWTFTLDGAKVTATLGQLTQNREVVYDSQSHHCHVDKVEKEVPDYEMWMLDAGGLEVEVECCRQKLEELASGRNQMYPHLKDC |  | binds
